Results reported in paper PMC11035067.
Values belong to the substance of their own block, whether it stands above or below them.

How the values were obtained:
Test in all cases: SEC; gel filtration during purification, Superdex 200 increase 10/300 GL in gel-filtration buffer (Table S2), non-actinic dim green light; self-association (dimer)
[1] = biological target: Idiomarina species A28L phytochrome-activated diguanylate cyclase (IsPadC), wild type (Idiomarina sp. A28L)
[2] = biological target: IsPadC D199L (Idiomarina sp. A28L)
[3] = biological target: IsPadC D199N (Idiomarina sp. A28L)
[4] = biological target: IsPadC G449E (Idiomarina sp. A28L)
[5] = biological target: IsPadC H193L (Idiomarina sp. A28L)
[6] = biological target: IsPadC H193Q (Idiomarina sp. A28L)
[7] = biological target: IsPadC R467S (Idiomarina sp. A28L)

stoichiometry N [1]: 2
Substance: Idiomarina species A28L phytochrome-activated diguanylate cyclase (IsPadC), wild type (enzyme)

stoichiometry N [3]: 2
Substance: IsPadC D199N (enzyme)

stoichiometry N [4]: 2
Substance: IsPadC G449E (enzyme)

stoichiometry N [5]: 2
Substance: IsPadC H193L (enzyme)

Further lines, the substance ahead of its results:

Substance: IsPadC D199L (enzyme)
stoichiometry N [2]: 2

Substance: IsPadC H193Q (enzyme)
stoichiometry N [6]: 2

Substance: IsPadC R467S (enzyme)
stoichiometry N [7]: 2
